Experimental data as given in IntAct's records for PubMed 29039417.

B1: Isoform 2 of Bardet-Biedl syndrome 7 protein (Homo sapiens), Q8IWZ6-2 (parent)
chain: MDLILNRMDYLQVGVTSQKTMKLIPASRHRATQKVVIGDHDGVVMCFGMKKGEAAAVFKTLPGPKIARLELGGVINTPQEKIFIAAASEIRGFTKRGKQFLSFETNLTESIKAMHISGSDLFLSASYIYNHYCDCKDQHYYLSGDKINDVICLPVERLSRITPVLACQDRVLRVLQGSDVMYAVEVPGPPTVLALHNGNGGDSGEDLLFGTSDGKLALIQITTSKPVRKWEIQNEKKRGGILCIDSFDIVGDGVKDLLVGRDDGMVEVYSFDNANEPVLRFDQMLSESVTSIQGGCVGKDSYDEIVVSTYSGWVTGLTTEPIHKESGPGEELKINQEMQNKISSLRNELEHLQYKVLQERENYQQSSQSSKAKSAVPSFGINDKFTLNKDDASYSLILEVQTAIDNVLIQSDVPIDLLDVDKNSAVVSFSSCDSESNDNFLLATYRCQADTTRLELKIRSIEGQYGTLQAYVTPRIQPKTCQVRQYHIKPLSLHQRTHFIDHDRPMNTLTLTGQFSFAEVHSWVVFCLPEVPEKPPAGECVTFYFQNTFLDTQLESTYRKGEGVFKSDNISTISILKDVLSKEATKRKINLNISYEINEVSVKHTLKLIHPKLEYQLLLAKKVQLIDALKELQIHEGNTNFLIPEYHCILEEADHLQEEYKKQPAHLERLYG
partner: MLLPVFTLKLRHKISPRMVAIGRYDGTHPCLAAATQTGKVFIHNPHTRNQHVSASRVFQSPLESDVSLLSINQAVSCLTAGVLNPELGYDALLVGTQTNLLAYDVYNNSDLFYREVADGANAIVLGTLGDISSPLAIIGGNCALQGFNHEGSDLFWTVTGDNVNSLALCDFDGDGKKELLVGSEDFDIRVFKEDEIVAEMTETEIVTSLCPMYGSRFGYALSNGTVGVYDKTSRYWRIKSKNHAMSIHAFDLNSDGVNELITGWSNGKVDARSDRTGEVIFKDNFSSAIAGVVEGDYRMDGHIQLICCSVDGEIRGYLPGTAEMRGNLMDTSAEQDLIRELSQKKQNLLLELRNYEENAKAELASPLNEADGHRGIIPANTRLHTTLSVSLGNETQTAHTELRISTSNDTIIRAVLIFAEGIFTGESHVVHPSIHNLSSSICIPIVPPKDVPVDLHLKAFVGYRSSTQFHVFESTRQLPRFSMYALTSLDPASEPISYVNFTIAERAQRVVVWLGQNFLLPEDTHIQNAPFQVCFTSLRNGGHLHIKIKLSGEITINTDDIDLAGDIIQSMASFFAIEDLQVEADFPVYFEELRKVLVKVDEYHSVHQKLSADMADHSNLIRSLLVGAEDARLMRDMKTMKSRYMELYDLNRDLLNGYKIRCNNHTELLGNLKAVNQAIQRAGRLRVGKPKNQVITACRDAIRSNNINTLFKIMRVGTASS

Variants of: B1
Details: with bbs2_human BBS2, Q9BXC9

Variant | effect of a mutation on the interaction
H502E | with no effect
H502A | with no effect
H502K | with no effect
T510E | with no effect
T510A | with no effect
T510K | with no effect
E530A | with no effect
E530K | with no effect
Q495A | with no effect
Q495E | with no effect
Q495K | with no effect
V541E | with no effect
V541A | with no effect
V541K | with no effect
Y486E | with no effect
Y486K | with no effect
Y486A | with no effect
D501A | with no effect
D501K | with no effect
D501E | with no effect
V524A | with no effect
V524E | with no effect
V524K | with no effect
S516E | with no effect
S516K | with no effect
S516A | with no effect

Variant | effect of a mutation on the interaction
P505K | with no effect
P505E | with no effect
P505A | with no effect
S492E | with no effect
S492A | with no effect
S492K | with no effect
K534A | with no effect
K534E | with no effect
P532A | with no effect
P532K | with no effect
P532E | with no effect
E539A | with no effect
E539K | with no effect
L491E | with no effect
L491A | with no effect
L491P | disrupting interaction strength
L491K | with no effect
S522K | with no effect
S522A | with no effect
S522E | disrupting interaction strength
L528A | with no effect
L528K | with no effect
L528E | with no effect
H487E | with no effect
H487A | with no effect
H487K | with no effect

Variant | effect of a mutation on the interaction
P529K | with no effect
P529E | with no effect
P529S | disrupting interaction strength
P529A | with no effect
P529C | disrupting interaction strength
E519A | with no effect
E519K | with no effect
A537E | with no effect
A537K | with no effect
R496A | with no effect
R496K | with no effect
R496E | with no effect
G513A | with no effect
G513Y | disrupting interaction strength
G513H | disrupting interaction strength
G513K | with no effect
G513D | disrupting interaction strength
G513S | disrupting interaction strength
G513E | with no effect
F517K | with no effect
F517A | with no effect
F517E | with no effect
F515E | with no effect
F515A | with no effect
F515K | disrupting interaction strength
V531A | with no effect

Variant | effect of a mutation on the interaction
V531K | with no effect
V531E | with no effect
L493K | with no effect
L493A | with no effect
L493E | with no effect
L493P | disrupting interaction strength
T508K | with no effect
T508E | with no effect
T508A | with no effect
V520K | with no effect
V520A | with no effect
V520E | with no effect
P535A | with no effect
P535E | with no effect
P535K | with no effect
H498A | with no effect
H498E | with no effect
H498K | with no effect
C540E | with no effect
C540A | with no effect
C540K | with no effect
W523K | with no effect
W523E | with no effect
W523A | disrupting interaction strength
N507A | with no effect
N507K | with no effect

Variant | effect of a mutation on the interaction
N507E | with no effect
F499S | disrupting interaction strength
F499K | with no effect
F499A | with no effect
F499E | with no effect
V525K | with no effect
V525E | with no effect
V525A | with no effect
P490L | disrupting interaction strength
P490K | with no effect
P490A | with no effect
P490E | with no effect
R504E | with no effect
R504A | with no effect
R504K | with no effect
H494E | with no effect
H494A | with no effect
H494K | with no effect
K489A | with no effect
K489E | with no effect
G538A | with no effect
G538E | with no effect
G538K | with no effect
Q485E | with no effect
Q485A | with no effect
Q485R | disrupting interaction strength

Variant | effect of a mutation on the interaction
Q485K | with no effect
Q485L | disrupting interaction strength
Q485N | disrupting interaction strength
T497E | with no effect
T497A | with no effect
T497K | with no effect
L511E | with no effect
L511K | with no effect
L511P | disrupting interaction strength
L511A | with no effect
L509P | disrupting interaction strength
L509E | with no effect
L509A | with no effect
L509K | with no effect
A518E | with no effect
A518K | with no effect
Q514A | with no effect
Q514E | with no effect
Q514K | with no effect
D503A | with no effect
D503K | with no effect
D503E | with no effect
I488A | with no effect
I488E | with no effect
I488K | with no effect
C527E | with no effect

Variant | effect of a mutation on the interaction
C527A | with no effect
C527K | with no effect
E533A | with no effect
E533K | with no effect
I500E | with no effect
I500K | with no effect
I500A | with no effect
M506K | with no effect
M506A | with no effect
M506E | with no effect
P536E | with no effect
P536K | with no effect
P536A | with no effect
T512K | with no effect
T512A | with no effect
T512E | with no effect
H521E | with no effect
H521A | with no effect
H521K | with no effect
F526A | with no effect
F526K | with no effect
F526E | with no effect
